{"source": "patent US7618943B2", "about": "“Fusion polypeptides, and use thereof in antivascular tumor therapy” (Oncoscience AG, priority 2003, dated 2009)", "key": {"integrin αvβ3": {"target": "integrin αvβ3 (Homo sapiens, UniProt P05106+P06756)", "sequence (P06756 31-889 limits assumed)": "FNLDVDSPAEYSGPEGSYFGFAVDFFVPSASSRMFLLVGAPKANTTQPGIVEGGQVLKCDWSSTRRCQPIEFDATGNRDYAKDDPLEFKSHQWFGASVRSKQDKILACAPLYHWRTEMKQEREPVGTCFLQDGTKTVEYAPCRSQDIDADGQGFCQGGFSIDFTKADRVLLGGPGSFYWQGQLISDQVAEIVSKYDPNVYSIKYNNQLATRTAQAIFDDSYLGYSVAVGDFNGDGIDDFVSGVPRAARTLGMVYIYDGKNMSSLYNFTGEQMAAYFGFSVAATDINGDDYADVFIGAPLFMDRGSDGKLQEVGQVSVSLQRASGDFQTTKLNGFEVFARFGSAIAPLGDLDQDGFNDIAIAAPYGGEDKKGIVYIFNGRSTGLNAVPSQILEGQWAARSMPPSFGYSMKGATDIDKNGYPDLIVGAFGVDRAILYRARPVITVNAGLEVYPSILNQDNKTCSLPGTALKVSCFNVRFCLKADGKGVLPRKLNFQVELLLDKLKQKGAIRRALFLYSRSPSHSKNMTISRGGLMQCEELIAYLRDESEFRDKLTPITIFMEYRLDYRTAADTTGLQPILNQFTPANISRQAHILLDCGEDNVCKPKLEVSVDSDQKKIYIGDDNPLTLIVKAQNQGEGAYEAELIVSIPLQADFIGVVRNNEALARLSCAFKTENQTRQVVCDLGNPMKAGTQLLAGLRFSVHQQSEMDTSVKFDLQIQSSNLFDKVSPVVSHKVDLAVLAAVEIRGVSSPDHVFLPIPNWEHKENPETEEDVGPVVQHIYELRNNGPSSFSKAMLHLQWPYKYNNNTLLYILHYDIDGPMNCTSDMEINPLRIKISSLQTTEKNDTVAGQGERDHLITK", "sequence (P06756 891-1048 limits assumed)": "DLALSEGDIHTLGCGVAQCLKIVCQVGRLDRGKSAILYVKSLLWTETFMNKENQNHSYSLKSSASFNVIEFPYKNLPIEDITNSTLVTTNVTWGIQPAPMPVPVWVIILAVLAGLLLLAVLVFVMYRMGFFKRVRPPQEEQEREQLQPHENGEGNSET", "sequence (P05106 27-788)": "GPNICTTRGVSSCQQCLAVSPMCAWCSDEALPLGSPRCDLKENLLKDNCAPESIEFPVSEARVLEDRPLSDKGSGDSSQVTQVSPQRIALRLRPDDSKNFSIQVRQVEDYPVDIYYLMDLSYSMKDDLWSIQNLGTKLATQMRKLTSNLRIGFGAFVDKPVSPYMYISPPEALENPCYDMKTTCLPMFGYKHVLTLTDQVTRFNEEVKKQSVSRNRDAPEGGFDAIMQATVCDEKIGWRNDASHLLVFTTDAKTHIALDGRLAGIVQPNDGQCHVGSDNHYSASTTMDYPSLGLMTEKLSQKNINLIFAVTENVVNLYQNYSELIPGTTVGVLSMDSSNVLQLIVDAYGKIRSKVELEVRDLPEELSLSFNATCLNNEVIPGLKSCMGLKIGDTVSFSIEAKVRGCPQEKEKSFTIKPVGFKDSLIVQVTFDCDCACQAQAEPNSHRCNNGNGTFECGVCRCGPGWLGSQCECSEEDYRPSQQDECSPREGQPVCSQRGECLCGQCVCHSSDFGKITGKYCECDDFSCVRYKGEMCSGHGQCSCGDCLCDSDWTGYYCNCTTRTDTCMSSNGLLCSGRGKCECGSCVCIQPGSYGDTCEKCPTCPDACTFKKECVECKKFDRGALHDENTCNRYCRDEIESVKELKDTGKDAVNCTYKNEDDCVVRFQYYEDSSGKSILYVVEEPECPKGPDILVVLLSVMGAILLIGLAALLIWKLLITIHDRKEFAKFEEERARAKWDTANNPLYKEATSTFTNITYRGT", "assay": "ELISA binding to immobilized purified αvβ3", "conditions": "0.1 μM protein, immobilized αvβ3", "procedure": "FIG. 4: Binding of tTF, tTF-RGD and tTF-NGR to integrin αvβ3. The binding of 0.1 μM tTF, tTF-RGD and tTF-NGR to immobilized αvβ3 was quantified with a polyclonal antibody against human TF (American Diagnostica) in an ELISA. The results are presented as median and interquartile range. The differences in binding between tTF-RGD and tTF or between tTF-NGR and tTF were statistically significant (p<0.001, Mann-Whitney test)."}, "human endothelial cells": {"tested_on": "human endothelial cells", "assay": "FACS binding of biotinylated proteins to endothelial cells in suspension", "assay_type": "cell-based", "conditions": "0.1 μM, 60 min at 4° C., streptavidin-phycoerythrin detection", "procedure": "FIG. 6: Binding of tTF and tTF-RGD to human endothelial cells. A: FACS analysis of endothelial cells incubated with 0.1 μM tTF (2) or with 0.1 μM tTF-RGD (3) for 60 min at 4° C. […] Curves 1 in A and B show the negative control.\nNext the specific binding of tTF-RGD to αvβ3 on endothelial cells was evaluated. For this, the differential binding of biotinylated tTF and tTF-RGD to endothelial cells in suspension was analysed by FACS (Fluorescence Activated Cell Sorting). The fact that all endothelial cells held in tissue culture are activated, i.e. express αvβ3 molecules, is utilized experimentally. This can be detected by various immunohistochemical methods. A cultivated endothelial cell thus corresponds, in relation to its expression pattern with respect to αvβ3 to a tumor endothelial cell. Accordingly, a cultivated endothelial cell can be used as a model system for the specific binding of substances to tumor endothelial cells and also permits predictions to be made concerning the expected toxicity.\nStreptavidin-phycoerythrin was used as the detection method. The measured fluorescence intensity for tTF-RGD was higher by a factor of 8 than for tTF (FIG. 6A). Furthermore, the binding of 0.1 μM tTF-RGD to endothelial cells was lowered competitively by 75% by the administration of 1 μM of the synthetic peptide GRGDSP (SEQ ID NO:33) (FIG. 6B). […]"}, "[1]": {"tested_on": "human malignant melanoma (M21)", "assay": "M21 melanoma xenograft in athymic nude mice, intravenous therapy", "assay_type": "in vivo", "procedure": "The vertical arrows indicate the times of injection with the respective substances.\nThe vertical arrows indicate the times of the injections with the respective substances.\n(§1) The tTF-RGD and tTF-NGR fusion proteins were evaluated with respect to their effects and side-effects on xenografts of human tumors in athymic nude mice. The models established in our laboratory were used for this (33, 34). The cell lines CCL185 (human adenocarcinoma of the lung) and M-21 (human melanoma) were injected subcutaneously into the flank of male BALB/c nude mice (9-12 weeks old). On attaining a tumor volume of about 50-100 mm^3 (CCL185) or 400-600 mm^3 (M−21), the mice were assigned to four groups at random. Group 1 received only physiological saline solution (NaCl), group 2 tTF, group 3 tTF-RGD, and group 4 tTF-NGR (in each case 1.5-2.0 mg/kg body weight (BW) of the protein). The injections were made in the caudal vein of the animals at intervals of 1-3 days (depending on the growth rate of the particular cell line). Considerable therapeutic activity of the fusion proteins was observed."}, "[2]": {"tested_on": "human fibrosarcoma (HT1080)", "assay": "HT1080 fibrosarcoma xenograft in BALB/c nude mice, intravenous therapy", "assay_type": "in vivo", "from_the_text": "b: Inhibition of a human fibrosarcoma (HT1080) growing as a xenograft in athymic nude mice by intravenous therapy with tTF fusion proteins (tTF-RGD, n=12) compared with the growth of the tumors with infusion of physiological saline solution (NaCl, n=15) or tTF (n=14). The vertical arrows indicate the times of the injections with the respective substances.\nThe antitumor activity of the tTF-RGD fusion protein was also investigated in BALB/c nude mice with fibrosarcomas (HT1080). These tumors grow rapidly and are well-vascularized. […] This effect lasted until the end of the experiment on day 7 (P=0.021 for tTF-RGD relative to the buffer control (physiological saline solution), P=0.005 for tTF-RGD relative to tTF)."}, "[3]": {"tested_on": "human lung carcinoma (CCL185)", "assay": "CCL185 lung carcinoma xenograft in athymic nude mice, intravenous therapy", "assay_type": "in vivo", "from_the_text": "FIG. 7: Inhibition of a human lung carcinoma (CCL185) growing as a xenograft in athymic nude mice by intravenous therapy with tTF fusion proteins (tTF-RGD, n=6; tTF-NGR, n=6) compared with tumor growth with infusion of physiological saline solution (NaCl, n=8) or tTF (n=1). The vertical arrows indicate the times of injection with the respective substances.\nc: Inhibition of a human lung carcinoma (CCL185) growing as a xenograft in athymic nude mice by intravenous therapy with tTF fusion proteins (tTF-RGD, n=11) compared with the growth of the tumors in infusion of physiological saline solution (NaCl, n=10) or tTF (n=5). The vertical arrows indicate the times of the injections with the respective substances.\nas §1"}, "tumor blood vessels": {"tested_on": "tumor blood vessels", "assay": "Macroscopy and histology of tumors after injection (thrombosis induction in tumor vessels, necrosis)", "assay_type": "in vivo, mice", "procedure": "FIG. 9: Macroscopic in vivo photograph of a tumor-bearing mouse 20 min after injection of the tTF-NGR fusion protein (A, left half of the picture) or NaCl (A, right half of the picture). […] After 60 min, the two mice were exsanguinated, the tumor was excised in toto and examined histologically. […] In contrast, the NaCl-treated tumor appears to be vital (C).\nFIG. 10: Histology of the melanoma tumor 1 hour after intravenous injection of tTF-RGD (A and B), tTF-NGR (C and D) and common salt (E and F) in the caudal vein of the tumor-bearing nude mouse. […] The photographs are of representative areas of the tumors (A, C and E: 200× magnification, B, D and F 400× magnification; HE staining (staining described e.g. in H. C. Burck, Histologische Technik-Leitfaden für die Herstellung mikroskopischer Präparate in Unterricht und Praxis, 5th edition, Thieme Verlag, Stuttgart 1982, pages 109 ff.).\nFIG. 35: Macrograph of a mouse bearing an M21 tumor at the end of treatment (day 7) with tTF-RGD fusion protein (A, C) or NaCl (B, D).\nTo verify the mechanism of action of thrombosis induction in tumor vessels, the following experiment was carried out: the human melanoma cell line was injected into the flank of two male BALB/c nude mice. On attaining a tumor size of approx. 500 mm^3, 2.0 mg/kg BW tTF-NGR or NaCl was injected into the caudal vein. […] After 60 min the mice were exsanguinated, the tumor was excised in toto and investigated histologically. […] In contrast, the tumor treated with NaCl appears to be vital (FIG. 9C)."}, "[4]": {"tested_on": "normal tissue such as heart, kidney, liver and lung", "conditions": "mouse, in vivo"}, "[5]": {"conditions": "melanoma tumor 1 hour after intravenous injection, HE staining"}}, "note": "Entries after “also recorded” stand apart in the source; their conditions may differ.", "data": [{"molecule": "tTF-RGD: fusion polypeptide tTF-GRGDSP (SEQ ID NO:3), peptide coupled to C-terminus of tTF (protein, Amino acid sequence of tTF-GRGDSP) SGTTNTVAAYNLTWKSTNFKTILEWEPKPVNQVYTVQISTKSGDWKSKCFYTTDTECDLTDEIVKDVKQTYLARVFSYPAGNVESTGSAGEPLYENSPEFTPYLETNLGQPTIQSFEQVGTKVNVTVEDERTLVRRNNTFLSLRDVFGKDLIYTLYYWKSSSSGKKTAKTNTNEFLIDVDKGENYCFSVQAVIPSRTVNRKSTDSPVECMGQEKGEFRGRGDSD", "values": [{"measurement": "binding to the αvβ3 integrin in ELISA", "setting": "integrin αvβ3", "value": "demonstrated"}, {"measurement": "measured fluorescence intensity, factor higher than for tTF", "setting": "human endothelial cells", "value": 8}, {"measurement": "Mean tumor volume Day 0", "setting": "[1]; M21 tumors, Day 0 (baseline)", "value": "585 ± 85", "unit": "mm^3"}, {"measurement": "Mean tumor volume Day 7", "setting": "[1]; M21 tumors, Day 7", "value": "514 ± 81", "unit": "mm^3"}, {"measurement": "effect on tumor growth", "setting": "[1]; M21 xenograft, intravenous therapy, compared with NaCl or tTF", "value": "Inhibition and partial remission"}, {"measurement": "Mean tumor volume Day 0", "setting": "[2]; HT1080 tumors, Day 0 (baseline)", "value": "1725 ± 197", "unit": "mm^3"}, {"measurement": "Mean tumor volume Day 7", "setting": "[2]; HT1080 tumors, Day 7", "value": "1241 ± 122", "unit": "mm^3"}, {"measurement": "effect on tumor growth", "setting": "[2]; HT1080 xenograft, intravenous therapy, compared with control groups", "value": "significant inhibition of growth; also recorded: partial regression of tumor volume"}, {"measurement": "Mean tumor volume Day 0", "setting": "[3]; CCL185 tumors, Day 0 (baseline)", "value": "45 ± 5", "unit": "mm^3"}, {"measurement": "Mean tumor volume Day 7", "setting": "[3]; CCL185 tumors, Day 7", "value": "130 ± 19", "unit": "mm^3"}, {"measurement": "effect on tumor growth", "setting": "[3]; CCL185 xenograft, intravenous therapy, compared with NaCl or tTF", "value": "Inhibition"}, {"measurement": "H-E staining of tumors: thrombosis and necrosis", "setting": "tumor blood vessels; FIG. 36, treated mice", "value": "Severe thrombosis and necrosis of tumor cells"}, {"measurement": "macroscopic appearance of tumor at the end of treatment", "setting": "tumor blood vessels; M21 tumor, day 7", "value": "clear signs of necrosis"}, {"measurement": "histology of tumor blood vessels (thrombus formation)", "setting": "tumor blood vessels; [5]", "value": "blood vessels appear to be thrombolytically occluded"}, {"measurement": "histology: tumor necrosis in supply region of occluded vessel", "setting": "tumor blood vessels; [5]", "value": "Extensive tumor necroses"}, {"measurement": "H-E staining of heart, lung, liver and kidney (thrombosis, necrosis)", "setting": "[4]", "value": "did not show any visible thrombosis or necrosis"}]}]}
